Data taken from the DeepSol protein solubility set.

assay: soluble on expression in E. coli; label from the status in PepcDB or PDB records

Row | Sequence | soluble on expression in E. coli
1 | MGSDKIHHHHHHMTVVDDEKPAQAASGRFAAGEDPAKRDQILDGAKRAFMKHGFDAASMNDVTREAGVSKGTIYVYFQSKEDLFAALINNQKQKFAASMRDILAEETDLHMALRRYALAFTNYILTSEMIPAMRMLLAVQDRMPHLCQSFMRSGPENVRTVLEDYLEVQVKAGRLDIADTELAARQYIELATGAYFKKRLFGEIEVPPPQAEIDYIIDNALHIFLLAYDRKAENGPEAQRAN | not soluble
2 | MSLDAAQAMSKIPVIGKIVKAITFIEIKEEKDQSSIDVKTPALSGLSNKELENSINEKYLKESQQLYKEFIQSTSKNKKGHLSIYSDYETVTDTPDLLSIRRNIETTQASSYTQSRYITIDKKNDILLTLKSLFKDERYIKVISQNIKEQMKQQMKEDPNKIYWLTDEDAEPFKTILPDQTFYITEDHKLVISFDEYEVAPGYMGVTEFTIPTGVISNLLVGERYIREGHHHHHH | soluble
3 | MSLNSKDIAKIVGVSRSTVSRVINNYPDIPQATREKVLKAIKEYNYYPNASARRLAGMKSSTLGIFIIDIKDNEKPHHVIENNEDLLYGNSYFSPFINAFIDQSNKAQYHVLVSTIYSSDELWKIQSAFYEKRIDGAVIIGSSSIDYSKIFEIMDKDSITVAVDLDMEKENTGTVMSVNINNYGGVSDAIDYLVELGHKDIAVITGDLNKLSGKIRFESFKDALLRHGLPLNNDFIAYGDFTENSGYEGMKKILASGKKPTAVFTSNDTMAIGAYRAIKEYGLKIPEDISVMGFDNSYISQYMSPPLTTVNVSLPEIAKCSIELLLDSINNKEIKNRQKTVNVQIVKRNSCKKEGHHHHHH | soluble
4 | LKDTLHNSELDDAERSSSDINNLFHSKPVKDISALDLNASLGNFQEIIIYDEHNNKLFETSNDNTVRVEPGYEHRYFDRVIKKRYKGIEYLIIKEPITTQDFKGYSLLIHSLENYDNIVKS | not soluble
5 | MPKDKLVITVSGLAGSGTTTLSKKIAEHYGLKHVYAGLIFRQMAKEKGMSLEEFQKYAELHPEIDREVDRRQIEAAKEGNVVIEGRLAGWMVKNADLKIWLDAPIRVRAERVAKREGISVEEAFMKIAEREMQNRKRYLNLYGIDINDLSIYDLIINTSKWSPEGVFAIVKAAIDHLDPVGDAGSKKEKEVG | soluble
6 | MAWPDLDPPRLAERPLSLQEALFVLEAPPEALPALAEAAIRVKEYFFGRRLKLVRLLNVKSGFCPEDCAYCAQSARSQAAIARYPLLSLEEILERAEEAQRLSARRFCLVAALRGPTPKVLERLGEAAQAIKARFPLELCASLGLLEEGMAEALKAAGFDYYNHNLNTVPSLYPRIATTHTYQDRLWTLKRAREAGLKLCSGVILGMGEGPKEVYEMALALRELGVESLPVNFLLPIPGTPLGDGRTVAGLTPERALKALILFRLLNPKAELRASAGRERYLGPYEPLAFRMVNSIFLQGYLTQPGSPWERDRALWESLDLDVEEGACG | soluble
7 | MGHHHHHHSAISVWRAVDYVRMPWKNGGGSTEEITRDAGTGLEGFGWRLSIADIGESGGFSSFAGYQRVITVIQGAGMVLTVDGEEQRGLLPLQPFAFRGDSQVSCRLITGPIRDFNLIYSPERYHARLQWVDGVQRFFSTAQTVLVFSVADEVKVLGEKLGHHDCLQVDGNAGLLDISVTGRCCLIELTQRG | soluble
8 | MLEKELSFADLSISLSELYEAMGYADAVPDEAVEKEVRGVLGRVEAVTSPRFCFFISGGELDESKDSLSVGDTCFSIGKIITRQLRGSESFAFFAATAGTGFERFQHTLQQEGDMVKVYIADAIGSVIAEKTADCMEIALDEYIRDRGWRHTNRFSPGYCGWHVSEQKKLFPLFPSAEPCGIRLTDSGLMLPIKSVSGVIGLGDGVRKLEYTCGLCTYDRCYRRKQRGLEHHHHHH | soluble
9 | MCANIGVDPLASNKGFWAELLGIGDFYYELGVQIIEVCMLTRSHNGGLISLQELCNHLRQRRKKDREAVTEDDCLRAISKLKVLGSGFEVITIGKKKLVRSVPTELNKDHNQILELAQGQGFVIVEEVQRRLSWTSGRVIDALETLLEEGLAMIDNGHKDGKCRYWFPCVSSVYSSIGSDT | soluble
10 | MGSDKIHHHHHHMNYKTSIADNVTEKEISEKLGISLSTVKRSVSRLKNNKNLIDKVISNNVIAEGSYKTYNKYHVAKCNEDFFYIYNSFFNDDMNIAKASERIKIKNFLLKLKAICKKETNKYISESPYMDGLNKAELSKKLGIIDTKTLNKYLEMAVNAGQIKYITNGLLILNKSIIPDFKKDDTDTRIYHIIYDWCIDNDVVPPDRNDEIKIMEDGSVRRKNSLLLEIAGKLGYMKDEEIRSLLTNRITSEEITLEYIAKVLNIKNKKKKEEIEWPPIIMLD | not soluble
11 | MSRRSSSSDSAVYVNFLERERRADVEKAARLYETRRDRVEPSYVFPAPSGEKRVGPNSNTGQKGVVGSYPVSIDYLTVVFSYARLAEAGYFDEPRFLLYLLFGLSVDDVIVGSHTSVRWHFYNSSASIIDSNGDLVGKIGWDGNADSYCISLTGSACRYIHDWSKVKRSLASLDARITRCDVAYDDYDGILGTVRHHEALAREHLAPAGGCLLFSSGGTPPRTRFLDDHGGGSGCTLYVGQRGHKQLCIYEKGKQLGVAESPWVRYEVRLYAKHAVIPFDLLEEPMRYLRGSYDYLCQLFSSVVVSPVSRIRTVVKHVEATGEALVRWLRRQVGPALGVLRQALGCGFSDFIVDRVEREGLPSRFRRICRGGDLLAYLRETLIDCSVGVCV | not soluble
12 | MGSDKIHHHHHHMAGIRAKQKEKTRQALINAAMNQLSAENGFSSLSLREVAREAGIAPTSFYRHFRDMDELGLTLVDECGLALRQLLRQARQRIESGGSIIRVSIETFMQFVANNTATFRLLLQERSGRSRSFRLAVVREIDHFKAELEDYLVNEQSFSRELAELQSDTIAKIVFSAGADCFDVDEEEREIITEKTILQVRLVARGAEATRRLLKRES | not soluble
13 | GMSEIDANYRALAQQVADKVAGRVIALDRLPESLLTAYRSLCDELLADRDGRFTRAWDQLPDSASSLFERCVFHGFYLANAWIQLSIVARDISELQDTDEAIAEQEYSGLYVRVAEAALKESVKKLKKARTDRSMYNSMREVMGI | soluble
14 | MSPVVSEASPERWDDETDVLVIGSGAGGLSAALFAAQAGLRVLICEKLAYVGGTTATSGGGIWVPGTKAGLAAGDTLEAARTYLKALLGDFYQEEVIDTYLATGGKVIDFLNENTEVKFDLSSWPDYRSSLPGGATRGRSLFPQPFDGKKLGRNFSLLHPPLHRLMVLGGLMLGPEEVHDFLRPFSSPRALMRVLRKLLRYGMDRIRYARGTDLRSGNALAARLLYSVDKLGCRILTQADLESLAIDHDRVIGATVVVGGVPKRIRASKAVLLATGGFAHNQEMLRRYGPATPHRFSLCNPACTGAGIQAALDAGASVDRELSSVGFWTPASASREKNGADTPVIYGYLDRGRPGVIAVNEQGERFVNEANSYHDIVTAIFANGGADGKPFYFITDREFVRRHGLGLIRPWPWNRSLRPWIRRGYITVASTLDKLGPKIGIDPGALAAAVQRHNQSARTGQDPDFHKGASAYNRMFGHNMTWPNPNLAPIETPPFVALRIHPATIGTAMGLKTSASGQALNAAGQPISGLYACGNNQASPFRGFYPGGGSTLGPAIVGAYLAVQSLSKPLEHHHHHH | soluble
15 | MLATPGRFFEKFQKMDKVYRRFYQHELAEYQFTPNEIAVILFLYNNAPDLDTATDIVRCKGISKGLVARSVDSLCREGYLTAVREPADRRIMHLKLSEKSRPITERIAVKQKELAGKIECGITPEELRITSATLDKLLINTEQLLKGKENHAE | soluble
